Measured values reported in US20090070890A1 (AFFITECH, published 2009).

Experiments:
[1] = biological target: T1, CD166 (ALCAM, activated leukocyte cell adhesion molecule), native, of human tumor cell lines (human, UniProt Q13740 28-583); assay: western blot, non-reducing SDS-PAGE, probed with EJ212/007-Cl2-5 IgG and anti-human IgG-HRP
T1 construct: whole, on cells; The antigen was identified as CD166 by mass spectrometry of protein from PM-1 cells; also called CD166 antigen; MEMD
T1 sequence (looked up): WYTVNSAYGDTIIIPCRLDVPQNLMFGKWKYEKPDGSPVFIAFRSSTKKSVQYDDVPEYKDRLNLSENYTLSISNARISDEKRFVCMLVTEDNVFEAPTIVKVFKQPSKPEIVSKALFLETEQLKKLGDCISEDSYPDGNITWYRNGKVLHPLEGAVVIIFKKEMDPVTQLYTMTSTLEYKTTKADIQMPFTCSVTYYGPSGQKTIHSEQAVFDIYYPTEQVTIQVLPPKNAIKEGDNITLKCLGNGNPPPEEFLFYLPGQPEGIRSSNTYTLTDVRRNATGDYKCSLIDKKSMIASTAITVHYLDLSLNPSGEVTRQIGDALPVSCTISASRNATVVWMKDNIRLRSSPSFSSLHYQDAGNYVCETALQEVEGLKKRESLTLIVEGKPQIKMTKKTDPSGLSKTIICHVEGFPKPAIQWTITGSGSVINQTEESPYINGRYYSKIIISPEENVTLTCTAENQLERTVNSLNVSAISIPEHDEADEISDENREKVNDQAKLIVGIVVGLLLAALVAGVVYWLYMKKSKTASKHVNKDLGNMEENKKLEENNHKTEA
Source text: Membrane proteins were isolated from two EJ212/007-Cl2-5 antigen-positive cell lines (PM-1 and DU-145; determined by FACS analysis) and concentrated by ultra-centrifugation. The membranes were resuspended in detergent (CHAPS/DOC) which was then removed from the sample by using Detergent Removing Resin (Pierce) in column format. The purified membrane proteins before and after sample concentration, and the cytosolic fraction were subsequently analysed by SDS-PAGE/Western under non-reducing conditions. The blot was probed with the EJ212/007-Cl2-5 IgG and corresponding secondary anti-human IgG coupled to HRP in order to visualise the proteins by chemiluminescence.

[2] = biological target: T2, human recombinant CD166-Fc (R&D systems), complete extracellular domain (human, UniProt Q13740 28-527); assay: ELISA, plate coated with 10 ug/ml CD166-Fc, detection with anti-kappa-HRP and ABTS, absorbance at 405 nm
T2 construct: extracellular domain; Bought reagent; also called recombinant CD166-Fc antigen; human CD166-Fc; not shown: Fc part of the commercial chimera, not described
T2 sequence (looked up): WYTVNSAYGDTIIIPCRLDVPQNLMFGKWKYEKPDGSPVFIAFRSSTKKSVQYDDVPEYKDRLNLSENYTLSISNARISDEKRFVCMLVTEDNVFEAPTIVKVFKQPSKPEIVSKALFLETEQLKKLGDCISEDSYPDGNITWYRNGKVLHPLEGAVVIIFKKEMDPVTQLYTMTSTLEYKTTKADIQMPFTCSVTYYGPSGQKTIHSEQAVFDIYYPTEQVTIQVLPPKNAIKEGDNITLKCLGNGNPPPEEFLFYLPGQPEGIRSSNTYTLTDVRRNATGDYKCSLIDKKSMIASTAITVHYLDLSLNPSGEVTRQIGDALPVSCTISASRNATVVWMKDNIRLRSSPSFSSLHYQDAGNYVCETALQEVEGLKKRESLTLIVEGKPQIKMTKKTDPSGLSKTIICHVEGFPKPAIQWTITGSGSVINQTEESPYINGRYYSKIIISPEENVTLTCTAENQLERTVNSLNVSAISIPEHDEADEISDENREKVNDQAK
Description: Binding of the EJ212/007-Cl2-5 IgG to the CD166 antigen was tested in ELISA. An ELISA plate was coated overnight with 10 μg/ml of a commercially available recombinant CD166-Fc antigen (R&D systems), CD166 d1-5/Fc or CD166 d1-3/Fc. An IgG with irrelevant binding specificity was added to the ELISA as a negative control. After washing with PBS/0.05% Tween the plate was incubated for 1 hour with a dilution series of EJ212/007-Cl2-5 IgG ranging from 10 to 0.16 μg/ml. Detection of the bound IgG was done by incubation for 1 hour with 1 μg/ml anti-kappa-HRP and 15 minutes with the 1-step ABTS substrate (Pierce). The absorbance was measured at 405 nm.

[3] = biological target: T3, mouse recombinant CD166-Fc (R&D systems) (mouse, UniProt Q61490 28-527); assay: ELISA on coated mouse CD166-Fc
T3 construct: Bought reagent; also called mouse CD166-Fc; not shown: Fc part of the commercial chimera, not described
T3 sequence (looked up): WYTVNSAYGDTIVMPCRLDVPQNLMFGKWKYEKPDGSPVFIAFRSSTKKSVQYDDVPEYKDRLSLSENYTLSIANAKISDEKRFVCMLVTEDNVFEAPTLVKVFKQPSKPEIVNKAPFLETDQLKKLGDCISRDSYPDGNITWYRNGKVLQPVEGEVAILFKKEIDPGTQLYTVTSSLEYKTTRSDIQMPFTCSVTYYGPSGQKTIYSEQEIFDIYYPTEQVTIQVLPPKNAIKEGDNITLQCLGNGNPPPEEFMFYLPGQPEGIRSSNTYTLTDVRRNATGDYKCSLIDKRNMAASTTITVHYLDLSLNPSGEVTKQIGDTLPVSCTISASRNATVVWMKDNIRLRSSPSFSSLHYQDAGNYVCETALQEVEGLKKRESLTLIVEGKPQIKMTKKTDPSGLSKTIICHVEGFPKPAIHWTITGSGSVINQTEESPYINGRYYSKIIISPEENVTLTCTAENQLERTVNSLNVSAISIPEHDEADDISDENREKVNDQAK

Recombinant ALCAM/Fc = biological target: T4, Recombinant ALCAM/Fc (UniProt Q13740 28-527, limits assumed); assay: Biacore T100; ALCAM/Fc (250 RU) amine-coupled to a CM5 chip; Fab at 3.9 to 125 nM; heterogeneous ligand model; Fab, not IgG; ALCAM/Fc on the chip
T4 construct: also called CD166 antigen (Biacore)
T4 sequence (looked up): T2 sequence (looked up)
Description: Binding affinity of EJ212/007-Cl2-5 Fab fragments to the CD166 antigen was measured by Biacore analysis. Recombinant ALCAM/Fc (250RU) was immobilized by amine coupling to a CM5 chip. A range of concentrations of the Fab antibody, from 3.9 to 125 nM (nanomolar), were run over the chip. The binding affinity, expressed as the Kd, was calculated using the Heterogen ligand binding model in the Biacore T100 Evaluation software.

[4] = biological target: T1, CD166 (ALCAM, activated leukocyte cell …); assay: photo-cross-linking of linker-coupled scFv to PM-1 cells, His-column and streptavidin-bead purification, blot detected with streptavidin-HRP
Description: PM-1 cells (2×10⁶) were incubated with 25 μg of the above linker coupled scFv. After washing with PBS the cells were exposed to UV light at 302 nm. This was followed by lysis of the cells by NP-40 in the presence of DNAsel. After incubation on ice SDS was added and the samples were loaded on a His-column. The column was washed in the presence of NP-40 and SDS and the protein of interest was eluted with 5 mM DTT in the same detergents. The eluted sample was then mixed with streptavidin beads and the beads were washed in the presence of SDS. The SDS concentrations was increased and the beads were incubated at 90° C. for five minutes. The supernatant was then run on a 7% SDS-PAGE, transferred to a PVDF membrane and detected with streptavidin-HRP.

B1: EJ212/007-Cl2-5 IgG (antibody)
heavy: not shown
light: DIRMTQSPSFLSASVGDRVTITCRASQDISSYFAWYQQKPGKAPKLLIYAASTLRSGVPSRFSGSGSGTDFTLTISSLQPEDFATYYCQQSYSTPRITFGQGTRLEIKRTVAAPSVFIFPPSDEQLKSGTASVVCLLNNFYPREAKVQWKVDNALQSGNSQESVTEQDSKDSTYSLSSTLTLSKADYEKHKVYACEVTHQGLSSPVTKSFNRGEC
notes: Human IgG1/kappa; also called IgG form of EJ212/007-Cl2-5; EJ212/007-Cl2-5 IgG antibody
B1: binds [1]; binds [2]; binds [3].

B2: EJ212/007-Cl2-5 Fab (Fab, V domains shown)
VH: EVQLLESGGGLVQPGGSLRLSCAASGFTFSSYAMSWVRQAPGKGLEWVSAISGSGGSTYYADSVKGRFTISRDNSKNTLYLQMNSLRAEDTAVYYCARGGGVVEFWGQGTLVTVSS
VL: DIRMTQSPSFLSASVGDRVTITCRASQDISSYFAWYQQKPGKAPKLLIYAASTLRSGVPSRFSGSGSGTDFTLTISSLQPEDFATYYCQQSYSTPRITFGQGTRLEIK
notes: Fab format of EJ212/007-Cl2-5; The CH1 and CL of the Fab, and how it was made, are not described; also called EJ212/007-Cl2-5 Fab fragments; Fab antibody
For B2, the Kd (Recombinant ALCAM/Fc) was 29 nM.

B3: scFv EJ212/007-Cl2-5 T68C (scFv, name in Kabat numbering)
scFv: EVQLLESGGGLVQPGGSLRLSCAASGFTFSSYAMSWVRQAPGKGLEWVSAISGSGGSTYYADSVKGRFCISRDNSKNTLYLQMNSLRAEDTAVYYCARGGGVVEFWGQGTLVTVSSKLSGSASAPKLEEGEFSEARVDIRMTQSPSFLSASVGDRVTITCRASQDISSYFAWYQQKPGKAPKLLIYAASTLRSGVPSRFSGSGSGTDFTLTISSLQPEDFATYYCQQSYSTPRITFGQGTRLEIK
modifications: Mts-Atf-LC-Biotin linker (Pierce 33083) coupled to the introduced Cys 68 (Kabat)
notes: Expressed in E. coli TG1; also called EJ212/007-Cl2-5 scFv (His-tagged) with a cysteine introduced by point mutation at position 68 (Kabat, RFCIS); linker coupled scFv
B3: binds [4].
